According to US20110165066A1 (AbbVie / Abbott, published 2011):
Residue numbers refer to the chain shown, from its start.

T1: mouse IL-13 (mouse, UniProt P20109 26-131, limits assumed)
T1 construct: also called mIL-13; murine IL-13
T1 sequence (looked up): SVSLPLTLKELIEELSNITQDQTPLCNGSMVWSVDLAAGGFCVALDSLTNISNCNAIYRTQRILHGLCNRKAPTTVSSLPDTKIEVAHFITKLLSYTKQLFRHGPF

B1: 4A8 (antibody, V domains shown)
VH: EVQLQQSGAEFVRPGALVKLSCKASGFNIKDYYMYWVKQRPEQGLEWIGRIDPENGNTIYDPKFQGKASITGDTSSNTAYLQLSSLTSEDTAVYYCARYAYYGPFDYWGQGTTLTVSS
VL: QAVVTQESALTTSPGETVTLTCRSSIGTVTTNNYANWVQEKPDHLFTGLIGSTNNRAPGVPARFSGSLIGDKAALTITGAQTEDEAIYFCALWYSNHWVFGGGTKLTVLG
B2: 1B6 (antibody, V domains shown)
VH: QVQLKESGPGLVAPSQSLSITCTVSGFSLTGYGVNWVRQPPGKGLEWLGMIWGDERIDYNSALKSRLSITKDNSKSQVFLKMNSLQTDDTGRYFCARDGYFPYAMDYWGQGTSVTVSS
VL: NIVLTQSPASLAVSLGQRATISCRASETVDSYGKSYLHWYQQKPGQPPKLLIYLASNLESGVPARFSGSGSRTDFTLIIDPVEADDAATYYCQQNNEGPRTFGGGTKLEIKR
B3: 5F1 (antibody, V domains shown)
VH: QVQLQQSGAELARPGTSVKLSCKASGYTFTTYGISWVKQRTGQGLEWIGEIYPGSYNTYYNEKFRGKATLTADKSSSTAYMQLSSLTSEDSAVYFCSRWRTSYFSDYGYFDYWGQGTTLTVSS
VL: DVVMTQTPLSLPVSLGDQASISCRSSQSLVHSHGNTYLHWYLQKPGQSPKLLIYTVSNRFSGVPDRFSGSGSGTDFTLKISRVEAEDLGVYFCSQSTHVPYTFGGGTKLEIKR
B4: 5G1 (antibody, V domains shown)
VH: B3 VH with I34V, S55N
VL: B3 VL
B5: 29G5 (antibody, V domains shown)
VH: QVTLKESGPGILQPSQTLSLTCSFSGFSLSTSDMGVDWIRQPSGKDLEWLAHIWWDDVKRYNPALKSRLTISKDTSSSQVFLMLASVDTADTATYYCARIVSSGYIYYALDYWGQGTSVTVSS
VL: DIQMTQTASSLSASLGDRVTISCRASQDIRNYLNWYQRKPDGTVKLLIYYTSRLHSGVPSRFSGSGSGTDYSLTISNLEQEDIATYFCQQGNTLPLTFGGGTKLEIKR
B6: 33C3 (antibody, V domains shown)
VH: B5 VH with M34L, D37G, D46G, L84I, V101G, A109E, L110M
VL: B5 VL with A8T, S22T, R38Q, E79D, K103R
B7: 6C8 (antibody, V domains shown)
VH: B2 VH with G26E, Y32S, G33S, E55G, T70S, G91A, F94Y, F101Y, D106N
VL: B2 VL with T28S, K34N, Y36F, L37M, T73A, I78T, G98N
B8: 3E5 (antibody, V domains shown)
VH: QVQLKESGPGLVAPSQSLSITCTVSGFSLTGSSINWVRQPPGKGLEWLGMIWGDGRIDYNSVLKSRLSISKDSSKSQVFLKMNSLQADDTARYYCARDGYYPYAMVYWGQGTSVTVSS
VL: B2 VL with S22F, T28S, K34N, Y36F, L37M, P44S, I78T, Y90F, G98N
B9: 25C8 (antibody, V domains shown)
VH: QVQLQQPGAELVRPGASVQLSCKASGYTFTSSWIHWVNQRPGQGLEWIGMIHPSDSETRLNQKFKDKATLTVDKSSSTAYMQLSSPTSEDSAVYYCASTATDFDYWGQGTTLTVSS
VL: DVVLTQTPLSLPVNIGDQASISCKSTKSLLNSDGFTYLDWYLQKPGQSPQLLIYLVSNRFSGAPDRFSGSGSGTDFTLKISRVEAEDLGVYYCFQHNYLPLTFGAGTNLELKR
B10: 5D3 (antibody, V domains shown)
VH: QVQLKESGPGLVAPSQSLSITCTVSGFSLTGYNINWVRQPPGKGLEWLGLIWGDGNTAFNSALKSRLSISKDNSKSQVFLKLNSLQTDDTARYYCARDGYYPYAIKYWGQGTSVTVSS
VL: B2 VL with K34N, Y36F, L37M, I78T, G98D
B11: 8B6 (antibody, V domains shown)
VH: B10 VH with Y32H, L50M, A58D, Y107F
VL: B2 VL with N1H, K34S, Y36F, N57K, I78T, T106S

Target: T1, mouse IL-13
Test: indirect ELISA, captured mAb, biotinylated mouse IL-13
Method: Murine anti-human IL-13 mAbs were prepared at various concentrations ranging from 0.1 to 100 ng/ml in PBS containing 0.1% BSA; 50 ul of each antibody dilution was added to the coated ELISA plate and incubated for 1 hour at room temperature. Wells were washed 3 times with PBS containing 0.05% Tween-20. […] Wells were washed 3 times with PBS containing 0.05% Tween-20. Streptavidin HRP (Pierce #21126, Rockland, Ill.) was diluted 1:20000 in PBS containing 0.1% BSA; […] was added and the plates incubated for 1 hour at room temperature. Plates were washed 3 times with PBS containing 0.05% Tween-20. Fifty microliters of TMB solution (Sigma # T0440, St. Louis, Mo.) was added to each well and incubated for 10 minutes at room temperature. The reaction was stopped by addition of 1N sulphuric acid. Plates were read spectrophotmetrically at a wavelength of 450 nm.

| Binder | binding result |
| --- | --- |
| B1 | no binding (tested: 0.1 to 100 ng/ml) |
| B2 | no binding (tested: 0.1 to 100 ng/ml) |
| B3 | no binding (tested: 0.1 to 100 ng/ml) |
| B4 | no binding (tested: 0.1 to 100 ng/ml) |
| B5 | no binding (tested: 0.1 to 100 ng/ml) |
| B6 | no binding (tested: 0.1 to 100 ng/ml) |
| B7 | no binding (tested: 0.1 to 100 ng/ml) |
| B8 | no binding (tested: 0.1 to 100 ng/ml) |
| B9 | no binding (tested: 0.1 to 100 ng/ml) |
| B10 | no binding (tested: 0.1 to 100 ng/ml) |
| B11 | no binding (tested: 0.1 to 100 ng/ml) |

Target: cynomolgus IL-13 (cynomolgus, UniProt Q0PW92 21-132)
Sequence (Q0PW92 entry or part of it): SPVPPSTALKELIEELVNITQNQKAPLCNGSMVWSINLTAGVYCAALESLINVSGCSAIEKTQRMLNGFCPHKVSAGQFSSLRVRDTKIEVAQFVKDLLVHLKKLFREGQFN
Test: cell-based or functional assay

| Binder | Average IC50, IL-13-induced TARC production by A-549 cells [nM] |
| --- | --- |
| B2 | 0.521 |
| B3 | 1.88 |
| B4 | 0.612 |
| B5 | 4.39 |
| B6 | 0.847 |
| B7 | 0.161 |
| B8 | 0.161 |
| B9 | 0.188 |
| B10 | 0.291 |
| B11 | 0.395 |

Target: T2, human IL-13 variant (R130Q) (human, UniProt P35225 35-146)
T2 sequence (P35225 35-146 limits assumed, stated change not applied): as the sequence (Q0PW92 entry or part of it) above, with S1G, K10R, V42M, N67S, R83H, V100L counted along it
Test: cell-based or functional assay

| Binder | Average IC50, IL-13-induced TARC production by A-549 cells [nM] |
| --- | --- |
| B1 | 0.27 |
| B2 | 0.24 |
| B3 | 0.09 |
| B4 | 0.048 |
| B5 | 0.2 |
| B6 | 0.1 |
| B7 | 0.34 |
| B8 | 0.3 |
| B9 | 0.26 |
| B10 | 0.29 |
| B11 | 0.48 |

Target: T3, human IL-13 wild type (human, UniProt P35225 35-146)
T3 sequence (P35225 other isoform, or with tags, fused parts or gaps limits assumed): as the sequence (Q0PW92 entry or part of it) above, with S1G, K10R, V42M, N67S, R83H, V100L, Q110R counted along it
Test: cell-based or functional assay

| Binder | Average IC50, IL-13-induced TARC production by A-549 cells [nM] |
| --- | --- |
| B2 | 0.84 |
| B3 | 0.097 |
| B4 | 0.076 |
| B5 | 0.29 |
| B6 | 0.15 |
| B7 | 0.72 |
| B8 | 0.13 |
| B9 | 0.23 |
| B10 | 0.705 |

Target: T2, human IL-13 variant (R130Q)
Test: SPR (Biacore), mAb captured, IL-13 as analyte
Method: (§1) The BIACORE assay (Biacore, Inc, Piscataway, N.J.) determines the affinity of antibodies with kinetic measurements of on-, off-rate constants. […] All chemicals were obtained from Biacore® AB (Uppsala, Sweden) or otherwise from a different source as described in the text. Approximately 5000 RU of goat anti-mouse IgG, (Fcγ), fragment specific polyclonal antibody (Pierce Biotechnology Inc, Rockford, Ill.) diluted in 10 mM sodium acetate (pH 4.5) was directly immobilized across a CM5 research grade biosensor chip using a standard amine coupling kit according to manufacturer's instructions and procedures at 25 μg/ml. Unreacted moieties on the biosensor surface were blocked with ethanolamine. Modified carboxymethyl dextran surface in flowcell 2 and 4 was used as a reaction surface. Unmodified carboxymethyl dextran without goat anti-mouse IgG in flow cell 1 and 3 was used as the reference surface. For kinetic analysis, rate equations derived from the 1:1 Langmuir binding model were fitted simultaneously to association and dissociation phases of all eight injections (using global fit analysis) with the use of Biaevaluation 4.0.1 software. Purified antibodies were diluted in HEPES-buffered saline for capture across goat anti-mouse IgG specific reaction surfaces. Mouse antibodies to be captured as a ligand (25 μg/ml) were injected over reaction matrices at a flow rate of 5 μl/min. The association and dissociation rate constants, kₒₙ (unit M⁻¹s⁻¹) and koff (unit s⁻¹) were determined under a continuous flow rate of 25 μl/min Rate constants were derived by making kinetic binding measurements at ten different antigen concentrations ranging from 10-200 nM. […] Binding is recorded as a function of time and kinetic rate constants are calculated.

| Binder | Kd [nM] | koff [s⁻¹] | kon [M⁻¹ s⁻¹] |
| --- | --- | --- | --- |
| B1 | 0.157 | – | – |
| B2 | 0.21 | 0.000222 | 1.06e+06 |
| B3 | 0.0314 | 1.57e-05 | 502000 |
| B4 | 0.13 | 2.05e-05 | 157000 |
| B5 | 0.329 | 0.000104 | 316000 |
| B6 | 0.124 | 9.59e-05 | 770000 |
| B7 | 0.403 | 0.000394 | 978000 |
| B8 | 0.253 | 0.000468 | 1.85e+06 |
| B9 | 0.0631 | 8.45e-06 | 134000 |
| B10 | 0.387 | 0.000584 | 1.51e+06 |
| B11 | 0.976 | 0.00096 | 983000 |

Target: T3, human IL-13 wild type
Test: SPR (Biacore), mAb captured, IL-13 as analyte
Method: as §1

| Binder | Kd [nM] | koff [s⁻¹] | kon [M⁻¹ s⁻¹] |
| --- | --- | --- | --- |
| B1 | 0.089 | – | – |
| B2 | 0.545 | 0.000518 | 951000 |
| B3 | 0.0289 | 2.24e-05 | 774000 |
| B4 | 0.00877 | 5.49e-06 | 626000 |
| B5 | 0.204 | 0.000175 | 859000 |
| B6 | 0.0639 | 0.000149 | 2.33e+06 |
| B7 | 0.484 | 0.000702 | 1.45e+06 |
| B8 | 0.457 | 0.000658 | 1.44e+06 |
| B9 | 0.0754 | 2.6e-05 | 345000 |
| B10 | 0.296 | 0.000483 | 1.63e+06 |
| B11 | 0.523 | 0.000607 | 1.16e+06 |
